Test results as given in patent publication US20220268706A1.

Assays:
[1] = target: antibody-CLICK-RLuc8 (anti-FLAG mAb-dPEG4-DBCO:RLuc8:dPEG8azide conjugate) (Renilla reniformis); experiment: BRET competition; 5 nM antibody-CLICK-RLuc8, 150 nM FLAG-GFP^2 as competitor, 100 nM FLAG peptide; same for every order of addition
[2] = target: antibody-CLICK-RLuc8 (anti-FLAG mAb-dPEG4-DBCO:RLuc8:dPEG8azide conjugate) (Renilla reniformis); experiment: BRET competition; 50 nM conjugate, 200 nM FLAG-GFP^2 as competitor, 1 µM FLAG peptide
[3] = target: antibody-12/36-RLuc8 conjugate (Renilla reniformis); experiment: BRET competition, Fluorostar; 50 nM mAb-12/36-RLuc8, 200 nM FLAG-GFP^2 as competitor
Sequence of antibody-12/36-RLuc8 conjugate (Renilla reniformis) (P27652 other isoform, or with tags, fused parts or gaps): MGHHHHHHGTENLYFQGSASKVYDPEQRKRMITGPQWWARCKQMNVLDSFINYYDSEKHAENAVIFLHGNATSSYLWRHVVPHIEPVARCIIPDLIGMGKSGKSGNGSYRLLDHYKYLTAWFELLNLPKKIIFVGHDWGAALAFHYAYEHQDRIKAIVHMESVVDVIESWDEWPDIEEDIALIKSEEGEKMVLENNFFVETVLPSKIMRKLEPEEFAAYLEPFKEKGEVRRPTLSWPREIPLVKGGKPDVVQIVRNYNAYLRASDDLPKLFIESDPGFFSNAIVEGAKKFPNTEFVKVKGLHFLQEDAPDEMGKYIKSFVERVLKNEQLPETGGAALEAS

Sequence of antibody-CLICK-RLuc8 (anti-FLAG mAb-dPEG4-DBCO:RLuc8:dPEG8azide conjugate) (Renilla reniformis) (P27652 other isoform, or with tags, fused parts or gaps): as above

## FLAG peptide (DYKDDDDK)
[1]
  decrease in the BRET ratio: 22%
[2]
  response to 1 µM FLAG peptide: 45%
[3]
  EC50: 274 nM
